The values below come from US20130129767A1.

Test [1] addresses bovine serum albumin (bovine) (UniProt P02769). The experiment in a line: static adhesion assay, IEs on coated BSA.
Test [2] concerns the target decorin: CSPG (Chondroitin Sulfate Proteoglycan, Sigma) (bovine) (UniProt P21793). As to the kind of experiment: static adhesion assay, IEs on coated CSPG.
Sequence of UniProt P21793 (P21793 31-360 limits assumed): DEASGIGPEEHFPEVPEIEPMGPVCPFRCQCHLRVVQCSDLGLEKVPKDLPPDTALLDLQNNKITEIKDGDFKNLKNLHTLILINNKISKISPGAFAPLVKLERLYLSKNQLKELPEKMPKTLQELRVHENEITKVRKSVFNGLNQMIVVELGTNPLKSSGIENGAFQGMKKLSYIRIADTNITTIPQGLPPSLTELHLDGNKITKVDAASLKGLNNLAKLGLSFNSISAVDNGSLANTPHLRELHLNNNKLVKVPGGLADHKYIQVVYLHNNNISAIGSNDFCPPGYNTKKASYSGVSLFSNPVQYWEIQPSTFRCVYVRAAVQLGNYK

Sequence of UniProt P02769 (P02769 25-607 limits assumed): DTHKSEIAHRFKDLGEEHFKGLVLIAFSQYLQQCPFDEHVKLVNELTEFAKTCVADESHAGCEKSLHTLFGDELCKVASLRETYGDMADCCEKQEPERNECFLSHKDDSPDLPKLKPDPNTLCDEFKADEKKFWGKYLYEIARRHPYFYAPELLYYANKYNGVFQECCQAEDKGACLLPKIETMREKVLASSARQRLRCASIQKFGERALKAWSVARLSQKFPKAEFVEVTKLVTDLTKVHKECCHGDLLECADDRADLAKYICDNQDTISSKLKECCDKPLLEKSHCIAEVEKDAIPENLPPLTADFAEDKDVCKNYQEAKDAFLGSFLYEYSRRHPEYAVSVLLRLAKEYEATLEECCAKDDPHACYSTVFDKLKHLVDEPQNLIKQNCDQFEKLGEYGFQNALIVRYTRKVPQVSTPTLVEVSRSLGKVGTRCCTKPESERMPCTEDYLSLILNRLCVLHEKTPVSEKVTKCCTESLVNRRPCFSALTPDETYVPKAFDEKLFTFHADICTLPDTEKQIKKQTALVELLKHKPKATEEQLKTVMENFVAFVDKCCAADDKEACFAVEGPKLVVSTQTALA

With “surface of P. falciparum-infected erythrocytes of isolate 1MH016 (naturally infected pregnant person, Benin)”, the Bound IEs/mm^2 on BSA in test [1] worked out at 2 IEs/mm^2. For the same substance, in test [2], the Bound IEs/mm^2 on CSPG is 178 IEs/mm^2.

Substance “surface of P. falciparum-infected erythrocytes of isolate 1MMCH (naturally infected pregnant person, Benin)” registered a Bound IEs/mm^2 on BSA in test [1] of 2.5 IEs/mm^2. This substance came in with a Bound IEs/mm^2 on CSPG in test [2] of 394 IEs/mm^2.

In test [1], “surface of P. falciparum-infected erythrocytes of isolate AK357 (naturally infected pregnant person, Benin)” showed a Bound IEs/mm^2 on BSA of 2.5 IEs/mm^2. For the same substance, in test [2], the Bound IEs/mm^2 on CSPG was 337 IEs/mm^2.

Turning to “surface of P. falciparum-infected erythrocytes of isolate AK366 (naturally infected pregnant person, Benin)”, the Bound IEs/mm^2 on BSA in test [1] is 0.5 IEs/mm^2. In test [2], the Bound IEs/mm^2 on CSPG was 357 IEs/mm^2.

Consider “surface of P. falciparum-infected erythrocytes of isolate CM307 (naturally infected pregnant person, Benin)”, for which, in test [1], the Bound IEs/mm^2 on BSA was found to be 1 IEs/mm^2. The substance further came in with a Bound IEs/mm^2 on CSPG in test [2] of 623 IEs/mm^2.

For the substance “surface of P. falciparum-infected erythrocytes of isolate CM0375 (naturally infected pregnant person, Benin)”, the Bound IEs/mm^2 on BSA in test [1] amounted to 5 IEs/mm^2. The Bound IEs/mm^2 on CSPG in test [2] was 63 IEs/mm^2.

For “surface of P. falciparum-infected erythrocytes of isolate CM0425 (naturally infected pregnant person, Benin)”, the Bound IEs/mm^2 on BSA in test [1] was 1 IEs/mm^2. In test [2], this substance had a Bound IEs/mm^2 on CSPG of 1040 IEs/mm^2.

Turning to “surface of P. falciparum-infected erythrocytes of isolate CM0437 (naturally infected pregnant person, Benin)”, the Bound IEs/mm^2 on BSA in test [1] came out at 1 IEs/mm^2. Further, the Bound IEs/mm^2 on CSPG in test [2] worked out at 736 IEs/mm^2.

Consider “surface of P. falciparum-infected erythrocytes of isolate CM445 (naturally infected pregnant person, Benin)”, for which the Bound IEs/mm^2 on BSA in test [1] was 1.5 IEs/mm^2. For the same substance, the Bound IEs/mm^2 on CSPG in test [2] is 218 IEs/mm^2.

Substance “surface of P. falciparum-infected erythrocytes of isolate WP0140 (naturally infected pregnant person, Benin)” came in with a Bound IEs/mm^2 on BSA in test [1] of 2.5 IEs/mm^2. For the same substance, the Bound IEs/mm^2 on CSPG in test [2] is 244 IEs/mm^2.

The substance “surface of P. falciparum-infected erythrocytes of isolate WP0161 (naturally infected pregnant person, Benin)” gave a Bound IEs/mm^2 on BSA in test [1] of 1 IEs/mm^2. Further, the Bound IEs/mm^2 on CSPG in test [2] is 1300 IEs/mm^2.

The substance “surface of P. falciparum-infected erythrocytes of isolate WP0168 (naturally infected pregnant person, Benin)” registered a Bound IEs/mm^2 on BSA in test [1] of 2 IEs/mm^2. This substance also registered a Bound IEs/mm^2 on CSPG in test [2] of 473 IEs/mm^2.

As for “surface of P. falciparum-infected erythrocytes of isolate WP0182 (naturally infected pregnant person, Benin)”, the Bound IEs/mm^2 on BSA in test [1] is 2 IEs/mm^2. The same substance registered a Bound IEs/mm^2 on CSPG in test [2] of 339 IEs/mm^2.

Consider “surface of P. falciparum-infected erythrocytes of isolate WP0200 (naturally infected pregnant person, Benin)”, for which the Bound IEs/mm^2 on BSA in test [1] stood at 4.5 IEs/mm^2. In test [2], the Bound IEs/mm^2 on CSPG turned out to be 185 IEs/mm^2.

In turn, “surface of P. falciparum-infected erythrocytes of isolate WP203 (naturally infected pregnant person, Benin)” had a Bound IEs/mm^2 on BSA in test [1] of 1 IEs/mm^2. Further, the Bound IEs/mm^2 on CSPG in test [2] turned out to be 161 IEs/mm^2.
